Experimental findings from the RNAGym collection of RNA variant scans (doi:10.7554/elife.90254) are described below.

B1: LINE1-full (parent)
chain: UACGUAGGUGGUUUUCCCCUGAUAGUGCUAAGGGGGCCUGGAAGUUUGGACUGGGCAGAGCUCAACACAGCGUGGCAAAGUGGCUGUGGCUAGACUGCCUCUCUGGAUUCCUCGUCACUCAGCAGGGCAUCUCUGAGAGAAAUGCC

In the series the parent is B1. Nature of the series: self-cleavage, relative activity (ratio to wild type); higher = more cleavage; in vitro, sequencing; the parent is a self-cleaving ribozyme.
Regarding G114A A129G, the self-cleavage was found to be 1.26.
In the case of G114A A129U, the self-cleavage amounted to 1.33.
In the case of G114U A140G it was 0.91; in that of G114A A136U, 2.15.
U112C U115C: the self-cleavage stood at 1.29.
Consider U112C A141G, for which the self-cleavage was determined as 1.57.
Consider U115A C128U, for which the self-cleavage stood at 1.23.
As to U112C U134C, the self-cleavage was determined as 1.23.
In the case of U112C U134A, the self-cleavage amounted to 0.61.
For the variant G114A G125U, the self-cleavage stood at 1.49.
Regarding U112G, the self-cleavage was determined as 1.28.
U112A: the self-cleavage was found to be 1.43.
On to U112C, for which the self-cleavage stood at 1.36.
In the case of G114A A121G it was 1.32.
Consider U112C C131U, for which the self-cleavage amounted to 1.87.
Consider U115C A117G, for which the self-cleavage came to 1.4.
In the case of U115C U143G it was 2.45.
In the case of U112A U143C, the self-cleavage worked out at 0.83.
On to C111U A136G, for which the self-cleavage was found to be 1.26.
With U115C A138G, the self-cleavage was 1.79.
As to U115A U143C, the self-cleavage was 1.54.
As to U115A U143A, the self-cleavage was found to be 1.36.
The same measure for U115C G122A: 1.77; for C111U G137A: 1.73.
With C113U C128U, the self-cleavage was 1.17.
As to U115A A124U, the self-cleavage amounted to 1.79.
In the case of U115C A124C, the self-cleavage came to 2.09.
Turning to C113U C131G, the self-cleavage was 1.32.
Turning to C110U A136C, the self-cleavage was found to be 2.76.
As for U115C U134C, the self-cleavage amounted to 1.61.
In the case of U115C U119C it was 2.04; in that of U112C G135A, 1.44.
The same measure for C113A U115A: 1.55; for C113A U115C: 1.5; for U112C A142G: 1.43.
In the case of U115A A129U, the self-cleavage worked out at 1.04.
In the case of U115A A129G it was 1.9; in that of C113A A136G, 0.91; in that of C110U G127A, 1.35.
On to U115C A140G, for which the self-cleavage was determined as 1.58.
In the case of U115C A140U, the self-cleavage was 1.39.
In the case of U112G A117U it was 1.92; in that of U112A U119A, 0.
For the variant U112A U119C, the self-cleavage amounted to 2.45.
Take U112A U132A: the self-cleavage is 1.69.
In the case of U115C A142G, the self-cleavage was 2.05.
With C110U U119C, the self-cleavage was determined as 1.39.
Take C111U U115C: the self-cleavage was found to be 1.55.
With U112C A117C, the self-cleavage is 1.38.
In the case of G114A A117U, the self-cleavage stood at 1.34.
As to G114A A117G, the self-cleavage was 1.27.
As to U112A U115C, the self-cleavage is 1.3.
G114A G122U: the self-cleavage was found to be 1.5.
As for C113U U130C, the self-cleavage was found to be 1.77.
For U115C C131A, the self-cleavage was determined as 0.47.
Regarding U112C A124C, the self-cleavage worked out at 0.77.
The same measure for U112C A124G: 0.64.
The same measure for C111A A117G: 1.69.
Turning to C113U C123U, the self-cleavage came to 1.35.
In the case of U115A U134A it was 0.95.
In the case of U115C A141U it was 1.27; in that of U112C G139A, 1.36; in that of C113U A136U, 1.75.
For the variant G114A A138G, the self-cleavage amounted to 1.47.
Turning to C113U A124G, the self-cleavage was found to be 1.31.
For the variant U112C A138U, the self-cleavage was 1.23.
The same measure for U115A A117U: 1.82; for C113A U130C: 0.44.
On to G114A A141G, for which the self-cleavage was 0.89.
In the case of U115C A121C it was 1.66; in that of U115C A121U, 2.06.
As for U115C A121G, the self-cleavage came to 1.42.
As to U115A G137A, the self-cleavage was 1.81.
Turning to U115A A140G, the self-cleavage amounted to 1.27.
Regarding C113U G126A, the self-cleavage came out at 1.62.
As to U115C A136U, the self-cleavage is 1.99.
The same measure for C113A U134C: 0.33; for U115C C146A: 1.82; for C110U A141U: 0.84.
Turning to U115A G122C, the self-cleavage was 1.09.
The same measure for G114A G127A: 1.74; for G114A G127C: 1.34.
For U112G C116A, the self-cleavage came to 1.57.
C111A A141G: the self-cleavage worked out at 1.03.
On to C111A A141U, for which the self-cleavage turned out to be 1.14.
Turning to U112G A142G, the self-cleavage was found to be 1.27.
The same measure for U112C G144A: 1.58; for U112C U130A: 1.59; for C113U A121G: 0.68.
Consider U112C C145A, for which the self-cleavage came out at 1.39.
Consider C113U A140G, for which the self-cleavage amounted to 0.69.
Turning to C110U U132C, the self-cleavage was found to be 1.45.
In the case of U112A U130C, the self-cleavage amounted to 1.6.
Consider U112C A136G, for which the self-cleavage turned out to be 1.51.
As to U112C A136U, the self-cleavage came out at 1.84.
In the case of U115C U130G, the self-cleavage was 0.66.
In the case of U112A A140U, the self-cleavage was 1.79.
Take U115C C145G: the self-cleavage was 1.64.
As to C111U A121U, the self-cleavage worked out at 1.28.
Take C113G U119A: the self-cleavage was 1.38.
With U112A A117G, the self-cleavage is 1.82.
Regarding U112A U134C, the self-cleavage is 1.56.
As to U112A U134A, the self-cleavage came to 1.09.
With U112A U134G, the self-cleavage came to 1.73.
Regarding C113A U132C, the self-cleavage was found to be 1.44.
Take U112C C128U: the self-cleavage turned out to be 1.35.
Consider U112C A129U, for which the self-cleavage turned out to be 1.67.
For C113U A117C, the self-cleavage is 1.68.
Consider C113U A117G, for which the self-cleavage was determined as 1.54.
Take U112A A141G: the self-cleavage worked out at 1.43.
Consider U112A A121C, for which the self-cleavage was 1.92.
In the case of U112A A121G it was 1.82.
For G114A U119C, the self-cleavage was 1.2.
Take U112C U132G: the self-cleavage worked out at 1.53.
On to C111U A141G, for which the self-cleavage worked out at 0.45.
For the variant G114A U132A, the self-cleavage was 1.64.
Consider C113U U119A, for which the self-cleavage came to 0.82.
The same measure for C111U U130C: 1.75; for G114A U134C: 1.13; for C110U G126A: 1.34.
In the case of G114U, the self-cleavage stood at 1.4.
As to G114A, the self-cleavage was 1.17.
Turning to G114C, the self-cleavage came to 1.63.
For the variant U115A U132C, the self-cleavage was determined as 1.88.
In the case of U115A U132G, the self-cleavage was 1.84.
For the variant U115A U132A, the self-cleavage worked out at 1.03.
As for G114U A142C, the self-cleavage turned out to be 0.95.
Regarding C113U A129G, the self-cleavage was found to be 1.34.
C113U A129U: the self-cleavage turned out to be 1.86.
Consider C110U A124G, for which the self-cleavage is 0.82.
Take G114A U115C: the self-cleavage is 1.58.
The same measure for U112C G126A: 1.64; for U115C G144A: 2.69.
For U115G, the self-cleavage came out at 1.5.
On to U115C, for which the self-cleavage is 1.58.
With U115A, the self-cleavage came out at 1.36.
With C110U U112A, the self-cleavage came out at 1.4.
As to G114U A141G, the self-cleavage came to 1.86.
U115A A141G: the self-cleavage amounted to 1.5.
For C110U A140G, the self-cleavage was 1.41.
Regarding U112G A136C, the self-cleavage turned out to be 0.61.
Turning to U115A A142G, the self-cleavage was found to be 0.9.
Consider U115A A142U, for which the self-cleavage was determined as 1.38.
In the case of U112G G139A, the self-cleavage is 1.15.
U112C G125A: the self-cleavage worked out at 1.6.
Regarding C113G G125U, the self-cleavage was 1.66.
Turning to U112C G127A, the self-cleavage was 1.35.
In the case of C113U U143C it was 1.05.
The same measure for C113U A142G: 0.91.
On to U112C C120U, for which the self-cleavage was determined as 1.37.
In the case of C111A, the self-cleavage turned out to be 1.25.
Regarding C111U, the self-cleavage came to 1.38.
With U112A A129U, the self-cleavage was 1.8.
In the case of U115A A138C it was 1.8; in that of U112A A136G, 1.71.
The same measure for U112A A138G: 1.57; for U112A A138U: 2.19; for U112C A140G: 0.83.
As for C111A U130A, the self-cleavage came to 1.16.
Regarding C113U A141G, the self-cleavage worked out at 0.94.
The same measure for U115A A136G: 1.68; for C113G C123U: 1.01.
In the case of C113U U115A, the self-cleavage stood at 1.05.
Take C113U U115C: the self-cleavage came out at 1.
Turning to U115C A129G, the self-cleavage was 1.64.
In the case of G114C A138G it was 1.41.
Consider U112C U143G, for which the self-cleavage amounted to 1.81.
